Experimental data taken from patent publication US20080220446A1, “Method for Detecting and/or Removing Protein and/or Peptide Comprising a Cross-Beta Structure From an Aqueous Solution Comprising a Protein” (priority 2005, published 2008).

Legend:
[1] = biological target: tPA (Homo sapiens, UniProt P00750); assay: Biacore surface plasmon resonance, binding to immobilized tPA; conditions: Hb-AGE 32, albumin-AGE 3.9, amyloid γ-globulins 62.5 μg ml^−1
Description: (§1) Binding of cross-β structure containing peptides/proteins was studied using surface plasmon resonance technology with a Biacore 2000 apparatus (Biacore AB, Uppsala, Sweden). A standardized amine coupling procedure was used to couple proteins with F domains to a CM5 chip (Biacore AB, Uppsala, Sweden). First, the dextran surface of the chips was activated by a 35 μl injection with a 1:1 mixture of 0.1 M N-hydroxysuccinimide (NHS) and 0.4 M N-ethyl-N′-(dimethylaminopropyl)carbodiimide (EDC) at a flow rate of 5 μl min.^−1. Then, the proteins were covalently coupled to the activated dextran surface. Remaining activated groups in each of the four flow channels were blocked by injection of 35 μl of 1 M ethanolamine hydrochloride pH 8.5. EDC, NHS and ethanolamine hydrochloride were obtained from Biacore. On one chip, on channels 1 to 4, buffer (reference channel), the soluble extracellular part of receptor for advanced glycation endproducts (sRAGE), tPA and K2P-tPA were immobilized. […] Binding of albumin-AGE was determined with a solution of 3.9 μg ml^−1 albumin-AGE in running buffer. albumin-AGE was filtered on a Millex-GV 0.22 μm filter unit (Millipore). […] Binding of Hb-AGE was also tested after centrifugation for 10 min. at 16,000*g alternative to filtration. tPA activation before and after filtration was assessed with a Plg-activation assay. […]

[2] = biological target: T1, sRAGE (Homo sapiens, UniProt Q15109); assay: Biacore surface plasmon resonance, binding to immobilized sRAGE; conditions: Hb-AGE 32, albumin-AGE 3.9, amyloid γ-globulins 62.5 μg ml^−1
T1 construct: comprises three domains spanning amino-acid residues 23-325; His-tag (N); thrombin cleavage site (N); made in house; host or cells: 293E cells (printed as 'hamster embryonic kidney cells')
Description: as §1

[3] = biological target: T2, tPA F-EGF (Homo sapiens, UniProt P00750); assay: Affinity determination ELISA, tPA F-EGF on coated (mis)folded proteins; type: binding; conditions: coated protein as labelled, relative to native control
T2 construct: made in house; host or cells: HEK293E
T2 sequence (P00750 36-120 limits assumed): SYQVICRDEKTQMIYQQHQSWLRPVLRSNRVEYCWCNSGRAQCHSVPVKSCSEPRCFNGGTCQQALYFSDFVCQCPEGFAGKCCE
Text: Synthetic genes of human BiP, human fibronectin finger 4,5 (Fn F4,5) fragment, and human tissue-type plasminogen activator finger EGF (tPA F-EGF) fragment were ordered from Geneart (Regensburg, Germany). These DNA constructs were digested using BamHI and NotI, and ligated into vector pABC674 (ABC-expression facility, Utrecht University, The Netherlands), which contains a carboxy-terminal FLAG-tag—His-tag. HEK293E cells were transiently transfected with these constructs using the polyethylene-imine method, and grown for 5-6 days.
Denatured proteins and their native controls BSA (Sigma, A7906), glycated BSA, Hb (Sigma, H7605), glycated Hb, ovalbumin (Sigma, A6741), heat-denatured misfolded ovalbumin, human γ-globulins (Sigma, G4386), heat-denatured misfolded γ-globulins, alkyl-γ-globulins, lysozyme (ICN Biochemicals, 100831) and alkyl-lysozyme were coated on ELISA plates (Greiner Microlon high-binding, 655092) in 50 mM NaHCO3-buffer pH 9.6. The plates were blocked using Blocking reagent (Roche 1112589). […] Bound protein is detected by the FLAG-tag using 1:3000 anti-FLAG-HRP (Sigma A-8592) in PBS-T, or by 1:1000 Ni-NTA-HRP (Qiagen 34530) in PBS-T. The HRP reaction Is performed using the TMB substrate (Biosource 4501103 or Tebu Bio 101TMB100-500), stopped using 10% H2SO4 and absorbance was measured at 450 nm.

tPA, sequence (P00750 36-562): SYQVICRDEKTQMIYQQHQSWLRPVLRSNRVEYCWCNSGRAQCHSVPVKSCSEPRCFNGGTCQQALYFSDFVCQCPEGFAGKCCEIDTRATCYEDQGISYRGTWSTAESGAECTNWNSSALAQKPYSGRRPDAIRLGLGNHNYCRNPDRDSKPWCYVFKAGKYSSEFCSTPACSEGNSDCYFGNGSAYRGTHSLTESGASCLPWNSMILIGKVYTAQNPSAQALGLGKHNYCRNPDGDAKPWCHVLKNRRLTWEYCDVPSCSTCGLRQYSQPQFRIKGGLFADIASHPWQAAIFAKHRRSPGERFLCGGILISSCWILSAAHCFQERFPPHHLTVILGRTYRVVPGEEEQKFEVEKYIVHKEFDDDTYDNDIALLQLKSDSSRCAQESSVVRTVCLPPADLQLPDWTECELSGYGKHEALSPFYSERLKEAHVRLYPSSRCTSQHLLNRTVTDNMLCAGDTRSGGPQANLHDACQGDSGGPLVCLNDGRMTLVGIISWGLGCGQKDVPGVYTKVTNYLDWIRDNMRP
T1 sequence (Q15109 23-325): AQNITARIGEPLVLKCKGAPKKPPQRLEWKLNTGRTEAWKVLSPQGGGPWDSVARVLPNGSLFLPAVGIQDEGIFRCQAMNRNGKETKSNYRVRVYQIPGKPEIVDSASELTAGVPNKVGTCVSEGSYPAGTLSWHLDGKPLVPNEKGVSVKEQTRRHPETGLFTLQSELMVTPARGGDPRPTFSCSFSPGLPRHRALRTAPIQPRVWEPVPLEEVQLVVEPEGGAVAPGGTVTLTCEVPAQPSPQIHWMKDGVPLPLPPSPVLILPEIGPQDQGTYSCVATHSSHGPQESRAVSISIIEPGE

## albumin-AGE: advanced glycation end-product modified bovine serum albumin
[1]
  binding to immobilized tPA: bind
[2]
  binding to immobilized sRAGE: bind
[3]
  binding of tPA F-EGF: High binding affinities
